Experimental data taken from patent US20160051704A1, “MOLECULAR IMAGING PROBES FOR LUNG CANCER INTRAOPERATIVE GUIDANCE” (H. Lee Moffitt Cancer Center and Research Institute, Inc., priority 2013, published 2016).

What was measured:
[1] = target: delta opioid receptor (δOR) on HCT-116/δOR cells (UniProt P41143); assay: LTRF competitive binding against Eu-DTPA-DPLCE (5 nM) on whole HCT-116/δOR cells; average of three experiments
[2] = target: delta opioid receptor (δOR) on HCT-116/δOR cells (UniProt P41143); assay: TRF competitive binding against Eu-labeled DPLCE on HCT116/δOR cells

| Ki [1] [nM] | Ki [2] [nM] | Substance |
| --- | --- | --- |
| 1.43 |  | Dmt-Tic-IR800 (Compound 1 of Scheme 4) (peptide) |
|  | 3 | Dmt-Tic-Lys(Cy5)-OH (Cy5 labeled ligand 1) (peptide) |
|  | 2.5 | Dmt-Tic-Lys(Mpr)-OH (ligand 6) (peptide) |
